The labels stand for the following.
B1: Compound No. 67 (peptide)
peptide: FANPHLGWSWFXRCG
HELM: PEPTIDE1{[O=C(C[*:3])[*:2]].F.[meA].N.P.H.L.[Sar].W.S.W.[meF].[CCCC[C@@H](C(=O)[*:2])N(C)[*:1]].R.C.G.[am]}$PEPTIDE1,PEPTIDE1,1:R3-15:R3$$$V2.0
SMILES: CCCC[C@H]1C(=O)N[C@@H](CCCNC(=N)N)C(=O)N[C@H](C(=O)NCC(N)=O)CSCC(=O)N[C@@H](Cc2ccccc2)C(=O)N(C)[C@@H](C)C(=O)N[C@@H](CC(N)=O)C(=O)N2CCC[C@H]2C(=O)N[C@@H](Cc2c[nH]cn2)C(=O)N[C@@H](CC(C)C)C(=O)N(C)CC(=O)N[C@@H](Cc2c[nH]c3ccccc23)C(=O)N[C@@H](CO)C(=O)N[C@@H](Cc2c[nH]c3ccccc23)C(=O)N(C)[C@@H](Cc2ccccc2)C(=O)N1C
notes: macrocyclic peptide, Formula I series; also called Compound 67
B2: Compound No. 19 (peptide)
peptide: FANPHLGWSWAXRCG
HELM: PEPTIDE1{[O=C(C[*:3])[*:2]].F.[meA].N.P.H.L.[Sar].W.S.W.[meA].[CCCC[C@@H](C(=O)[*:2])N(C)[*:1]].R.C.G.[am]}$PEPTIDE1,PEPTIDE1,1:R3-15:R3$$$V2.0
SMILES: CCCC[C@H]1C(=O)N[C@@H](CCCNC(=N)N)C(=O)N[C@H](C(=O)NCC(N)=O)CSCC(=O)N[C@@H](Cc2ccccc2)C(=O)N(C)[C@@H](C)C(=O)N[C@@H](CC(N)=O)C(=O)N2CCC[C@H]2C(=O)N[C@@H](Cc2c[nH]cn2)C(=O)N[C@@H](CC(C)C)C(=O)N(C)CC(=O)N[C@@H](Cc2c[nH]c3ccccc23)C(=O)N[C@@H](CO)C(=O)N[C@@H](Cc2c[nH]c3ccccc23)C(=O)N(C)[C@@H](C)C(=O)N1C
notes: macrocyclic peptide, Formula I series; also called Compound 19
B3: Compound No. 65 (peptide)
peptide: FANPHLGWSWLXRCG
HELM: PEPTIDE1{[O=C(C[*:3])[*:2]].F.[meA].N.P.H.L.[Sar].W.S.W.[meL].[CCCC[C@@H](C(=O)[*:2])N(C)[*:1]].R.C.G.[am]}$PEPTIDE1,PEPTIDE1,1:R3-15:R3$$$V2.0
SMILES: CCCC[C@H]1C(=O)N[C@@H](CCCNC(=N)N)C(=O)N[C@H](C(=O)NCC(N)=O)CSCC(=O)N[C@@H](Cc2ccccc2)C(=O)N(C)[C@@H](C)C(=O)N[C@@H](CC(N)=O)C(=O)N2CCC[C@H]2C(=O)N[C@@H](Cc2c[nH]cn2)C(=O)N[C@@H](CC(C)C)C(=O)N(C)CC(=O)N[C@@H](Cc2c[nH]c3ccccc23)C(=O)N[C@@H](CO)C(=O)N[C@@H](Cc2c[nH]c3ccccc23)C(=O)N(C)[C@@H](CC(C)C)C(=O)N1C
notes: macrocyclic peptide, Formula I series; also called Compound 65
B4: Compound No. 27 (peptide)
peptide: {CH2CO}-[1Nal][NMeA]NPHL[Sar]WSW[NMeNle][NMeNle]RCG-NH2
modifications: thioether N-14
SMILES: CCCC[C@H]1C(=O)N(C)[C@@H](CCCC)C(=O)N[C@@H](CCCNC(=N)N)C(=O)N[C@H](C(=O)NCC(N)=O)CSCC(=O)N[C@@H](Cc2cccc3ccccc23)C(=O)N(C)[C@@H](C)C(=O)N[C@@H](CC(N)=O)C(=O)N2CCC[C@H]2C(=O)N[C@@H](Cc2c[nH]cn2)C(=O)N[C@@H](CC(C)C)C(=O)N(C)CC(=O)N[C@@H](Cc2c[nH]c3ccccc23)C(=O)N[C@@H](CO)C(=O)N[C@@H](Cc2c[nH]c3ccccc23)C(=O)N1C
notes: macrocyclic peptide, Formula I series; also called Compound 27
B5: Compound No. 51 (peptide)
peptide: {CH2CO}-F[NMeA]NPHD[Sar]WSW[NMeNle][NMeNle]RCG-NH2
modifications: thioether N-14
SMILES: CCCC[C@H]1C(=O)N(C)[C@@H](CCCC)C(=O)N[C@@H](CCCNC(=N)N)C(=O)N[C@H](C(=O)NCC(N)=O)CSCC(=O)N[C@@H](Cc2ccccc2)C(=O)N(C)[C@@H](C)C(=O)N[C@@H](CC(N)=O)C(=O)N2CCC[C@H]2C(=O)N[C@@H](Cc2c[nH]cn2)C(=O)N[C@@H](CC(=O)O)C(=O)N(C)CC(=O)N[C@@H](Cc2c[nH]c3ccccc23)C(=O)N[C@@H](CO)C(=O)N[C@@H](Cc2c[nH]c3ccccc23)C(=O)N1C
notes: macrocyclic peptide, Formula I series; also called Compound 51
B6: Compound No. 62 (peptide)
peptide: {CH2CO}-F[NMeA]NPHL[Sar]WSI[NMeNle][NMeNle]RCG-NH2
modifications: thioether N-14
SMILES: CCCC[C@H]1C(=O)N(C)[C@@H](CCCC)C(=O)N[C@@H](CCCNC(=N)N)C(=O)N[C@H](C(=O)NCC(N)=O)CSCC(=O)N[C@@H](Cc2ccccc2)C(=O)N(C)[C@@H](C)C(=O)N[C@@H](CC(N)=O)C(=O)N2CCC[C@H]2C(=O)N[C@@H](Cc2c[nH]cn2)C(=O)N[C@@H](CC(C)C)C(=O)N(C)CC(=O)N[C@@H](Cc2c[nH]c3ccccc23)C(=O)N[C@@H](CO)C(=O)N[C@@H]([C@@H](C)CC)C(=O)N1C
notes: macrocyclic peptide, Formula I series; also called Compound 62
B7: Compound No. 53 (peptide)
peptide: {CH2CO}-F[NMeA]NPHLHWSW[NMeNle][NMeNle]RCG-NH2
modifications: thioether N-14
SMILES: CCCC[C@H]1C(=O)N(C)[C@@H](CCCC)C(=O)N[C@@H](CCCNC(=N)N)C(=O)N[C@H](C(=O)NCC(N)=O)CSCC(=O)N[C@@H](Cc2ccccc2)C(=O)N(C)[C@@H](C)C(=O)N[C@@H](CC(N)=O)C(=O)N2CCC[C@H]2C(=O)N[C@@H](Cc2c[nH]cn2)C(=O)N[C@@H](CC(C)C)C(=O)N[C@@H](Cc2c[nH]cn2)C(=O)N[C@@H](Cc2c[nH]c3ccccc23)C(=O)N[C@@H](CO)C(=O)N[C@@H](Cc2c[nH]c3ccccc23)C(=O)N1C
notes: macrocyclic peptide, Formula I series; also called Compound 53
B8: Compound No. 55 (peptide)
peptide: {CH2CO}-F[NMeA]NPHLPWSW[NMeNle][NMeNle]RCG-NH2
modifications: thioether N-14
SMILES: CCCC[C@H]1C(=O)N(C)[C@@H](CCCC)C(=O)N[C@@H](CCCNC(=N)N)C(=O)N[C@H](C(=O)NCC(N)=O)CSCC(=O)N[C@@H](Cc2ccccc2)C(=O)N(C)[C@@H](C)C(=O)N[C@@H](CC(N)=O)C(=O)N2CCC[C@H]2C(=O)N[C@@H](Cc2c[nH]cn2)C(=O)N[C@@H](CC(C)C)C(=O)N2CCC[C@H]2C(=O)N[C@@H](Cc2c[nH]c3ccccc23)C(=O)N[C@@H](CO)C(=O)N[C@@H](Cc2c[nH]c3ccccc23)C(=O)N1C
notes: macrocyclic peptide, Formula I series; also called Compound 55
B9: Compound No. 61 (peptide)
peptide: {CH2CO}-F[NMeA]NPHL[Sar]WSM[NMeNle][NMeNle]RCG-NH2
modifications: thioether N-14
SMILES: CCCC[C@H]1C(=O)N(C)[C@@H](CCCC)C(=O)N[C@@H](CCCNC(=N)N)C(=O)N[C@H](C(=O)NCC(N)=O)CSCC(=O)N[C@@H](Cc2ccccc2)C(=O)N(C)[C@@H](C)C(=O)N[C@@H](CC(N)=O)C(=O)N2CCC[C@H]2C(=O)N[C@@H](Cc2c[nH]cn2)C(=O)N[C@@H](CC(C)C)C(=O)N(C)CC(=O)N[C@@H](Cc2c[nH]c3ccccc23)C(=O)N[C@@H](CO)C(=O)N[C@@H](CCSC)C(=O)N1C
notes: macrocyclic peptide, Formula I series; also called Compound 61
B10: Compound No. 54 (peptide)
peptide: {CH2CO}-F[NMeA]NPHLRWSW[NMeNle][NMeNle]RCG-NH2
modifications: thioether N-14
SMILES: CCCC[C@H]1C(=O)N(C)[C@@H](CCCC)C(=O)N[C@@H](CCCNC(=N)N)C(=O)N[C@H](C(=O)NCC(N)=O)CSCC(=O)N[C@@H](Cc2ccccc2)C(=O)N(C)[C@@H](C)C(=O)N[C@@H](CC(N)=O)C(=O)N2CCC[C@H]2C(=O)N[C@@H](Cc2c[nH]cn2)C(=O)N[C@@H](CC(C)C)C(=O)N[C@@H](CCCNC(=N)N)C(=O)N[C@@H](Cc2c[nH]c3ccccc23)C(=O)N[C@@H](CO)C(=O)N[C@@H](Cc2c[nH]c3ccccc23)C(=O)N1C
notes: macrocyclic peptide, Formula I series; also called Compound 54
B11: Compound No. 26 (peptide)
peptide: {CH2CO}-[2Nal][NMeA]NPHL[Sar]WSW[NMeNle][NMeNle]RCG-NH2
modifications: thioether N-14
SMILES: CCCC[C@H]1C(=O)N(C)[C@@H](CCCC)C(=O)N[C@@H](CCCNC(=N)N)C(=O)N[C@H](C(=O)NCC(N)=O)CSCC(=O)N[C@@H](Cc2ccc3ccccc3c2)C(=O)N(C)[C@@H](C)C(=O)N[C@@H](CC(N)=O)C(=O)N2CCC[C@H]2C(=O)N[C@@H](Cc2c[nH]cn2)C(=O)N[C@@H](CC(C)C)C(=O)N(C)CC(=O)N[C@@H](Cc2c[nH]c3ccccc23)C(=O)N[C@@H](CO)C(=O)N[C@@H](Cc2c[nH]c3ccccc23)C(=O)N1C
notes: macrocyclic peptide, Formula I series; also called Compound 26
B12: Compound No. 28 (peptide)
peptide: {CH2CO}-[Bip][NMeA]NPHL[Sar]WSW[NMeNle][NMeNle]RCG-NH2
modifications: thioether N-14
SMILES: CCCC[C@H]1C(=O)N(C)[C@@H](CCCC)C(=O)N[C@@H](CCCNC(=N)N)C(=O)N[C@H](C(=O)NCC(N)=O)CSCC(=O)N[C@@H](Cc2ccc(-c3ccccc3)cc2)C(=O)N(C)[C@@H](C)C(=O)N[C@@H](CC(N)=O)C(=O)N2CCC[C@H]2C(=O)N[C@@H](Cc2c[nH]cn2)C(=O)N[C@@H](CC(C)C)C(=O)N(C)CC(=O)N[C@@H](Cc2c[nH]c3ccccc23)C(=O)N[C@@H](CO)C(=O)N[C@@H](Cc2c[nH]c3ccccc23)C(=O)N1C
notes: macrocyclic peptide, Formula I series; also called Compound 28
B13: Compound No. 32 (peptide)
peptide: {CH2CO}-[Phe(4-F)][NMeA]NPHL[Sar]WSW[NMeNle][NMeNle]RCG-NH2
modifications: thioether N-14
SMILES: CCCC[C@H]1C(=O)N(C)[C@@H](CCCC)C(=O)N[C@@H](CCCNC(=N)N)C(=O)N[C@H](C(=O)NCC(N)=O)CSCC(=O)N[C@@H](Cc2ccc(F)cc2)C(=O)N(C)[C@@H](C)C(=O)N[C@@H](CC(N)=O)C(=O)N2CCC[C@H]2C(=O)N[C@@H](Cc2c[nH]cn2)C(=O)N[C@@H](CC(C)C)C(=O)N(C)CC(=O)N[C@@H](Cc2c[nH]c3ccccc23)C(=O)N[C@@H](CO)C(=O)N[C@@H](Cc2c[nH]c3ccccc23)C(=O)N1C
notes: macrocyclic peptide, Formula I series; also called Compound 32
B14: Compound No. 24 (peptide)
peptide: {CH2CO}-F[NMeA]NPHL[Sar]WSW[NMeNle][NMeNle]RC-NH2
modifications: thioether N-14
SMILES: CCCC[C@H]1C(=O)N(C)[C@@H](CCCC)C(=O)N[C@@H](CCCNC(=N)N)C(=O)N[C@H](C(N)=O)CSCC(=O)N[C@@H](Cc2ccccc2)C(=O)N(C)[C@@H](C)C(=O)N[C@@H](CC(N)=O)C(=O)N2CCC[C@H]2C(=O)N[C@@H](Cc2c[nH]cn2)C(=O)N[C@@H](CC(C)C)C(=O)N(C)CC(=O)N[C@@H](Cc2c[nH]c3ccccc23)C(=O)N[C@@H](CO)C(=O)N[C@@H](Cc2c[nH]c3ccccc23)C(=O)N1C
notes: macrocyclic peptide, Formula I series; also called Compound 24

Positions of bridges follow the written chain, without caps; N, C: chain ends. Non-standard residues stand in square brackets, D forms with d. Bip = N[C@@H](Cc1ccc(-c2ccccc2)cc1)C(=O)O; Phe(4-F) = N[C@@H](Cc1ccc(F)cc1)C(=O)O; 1Nal = N[C@@H](Cc1cccc2ccccc12)C(=O)O; 2Nal = N[C@@H](Cc1ccc2ccccc2c1)C(=O)O; NMeNle = CCCC[C@H](NC)C(=O)O; NMeA = CN[C@@H](C)C(=O)O; Sar = CNCC(=O)O

Among the data in US20140294898A1 (published 2014) are IC50 values, retold here.

As usually defined, the IC50 is the midpoint of a concentration-inhibition curve.

The test deals with T1, human PD-L1 (human, UniProt Q9NZQ7 19-239, limits assumed).
T1 construct: also called Hu PD-L1; hPD-L1
T1 sequence (Q9NZQ7 19-239 limits assumed): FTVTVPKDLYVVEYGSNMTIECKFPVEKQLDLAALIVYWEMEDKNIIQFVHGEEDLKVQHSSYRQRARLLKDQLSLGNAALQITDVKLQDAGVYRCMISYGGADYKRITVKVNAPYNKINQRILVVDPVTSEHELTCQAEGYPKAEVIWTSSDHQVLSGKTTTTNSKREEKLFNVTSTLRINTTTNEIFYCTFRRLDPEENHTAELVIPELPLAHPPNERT
Kind of test: cell binding assay, inhibition of Hu PD-L1/PD-1 binding.
For B1, the IC50 worked out at 143 nM. Then B2, with 134 nM. Next, B3: 258 nM; B4: 28 nM; B5: 118 nM. Next, B6: 3410 nM; B7: 47 nM; B8: 3 nM. Consider B9, for which the 50% inhibitory concentration (IC50) is 195 nM. B10 yielded a half-inhibitory concentration (IC50) of 68 nM. Next, B11: 13 nM. Then B12, with 82 nM. Then B13, with 25 nM; and B14, with 8 nM.
